Laboratory results published in paper doi:10.1101/466904v1.

B1: Axe2 (Geobacillus stearothermophilus) (protein)
chain: MKIGSGEKLLFIGDSITDCGRARPEGEGSFGALGTGYVAYVVGLLQAVYPELGIRVVNKGISGNTVRDLKARWEEDVIAQKPDWVSIMIGINDVWRQYDLPFMKEKHVYLDEYEATLRSLVLETKPLVKGIILMTPFYIEGNEQDPMRRTMDQYGRVVKQIAEETNSLFVDTQAAFNEVLKTLYPAALAWDRVHPSVAGHMILARAFLREIGFEWVRSR
B2: Axe2 (Geobacillus stearothermophilus; W190P/Y184F) (protein)
chain: MKIGSGEKLLFIGDSITDCGRARPEGEGSFGALGTGYVAYVVGLLQAVYPELGIRVVNKGISGNTVRDLKARWEEDVIAQKPDWVSIMIGINDVWRQYDLPFMKEKHVYLDEYEATLRSLVLETKPLVKGIILMTPFYIEGNEQDPMRRTMDQYGRVVKQIAEETNSLFVDTQAAFNEVLKTLFPAALAPDRVHPSVAGHMILARAFLREIGFEWVRSR
B3: Axe2 (Geobacillus stearothermophilus; Y184N) (protein)
chain: MKIGSGEKLLFIGDSITDCGRARPEGEGSFGALGTGYVAYVVGLLQAVYPELGIRVVNKGISGNTVRDLKARWEEDVIAQKPDWVSIMIGINDVWRQYDLPFMKEKHVYLDEYEATLRSLVLETKPLVKGIILMTPFYIEGNEQDPMRRTMDQYGRVVKQIAEETNSLFVDTQAAFNEVLKTLNPAALAWDRVHPSVAGHMILARAFLREIGFEWVRSR
B4: Axe2 (Geobacillus stearothermophilus; W190I) (protein)
chain: MKIGSGEKLLFIGDSITDCGRARPEGEGSFGALGTGYVAYVVGLLQAVYPELGIRVVNKGISGNTVRDLKARWEEDVIAQKPDWVSIMIGINDVWRQYDLPFMKEKHVYLDEYEATLRSLVLETKPLVKGIILMTPFYIEGNEQDPMRRTMDQYGRVVKQIAEETNSLFVDTQAAFNEVLKTLYPAALAIDRVHPSVAGHMILARAFLREIGFEWVRSR
B5: Axe2 (Geobacillus stearothermophilus; R55E) (protein)
chain: MKIGSGEKLLFIGDSITDCGRARPEGEGSFGALGTGYVAYVVGLLQAVYPELGIEVVNKGISGNTVRDLKARWEEDVIAQKPDWVSIMIGINDVWRQYDLPFMKEKHVYLDEYEATLRSLVLETKPLVKGIILMTPFYIEGNEQDPMRRTMDQYGRVVKQIAEETNSLFVDTQAAFNEVLKTLYPAALAWDRVHPSVAGHMILARAFLREIGFEWVRSR
B6: Axe2 (Geobacillus stearothermophilus; Y184F) (protein)
chain: MKIGSGEKLLFIGDSITDCGRARPEGEGSFGALGTGYVAYVVGLLQAVYPELGIRVVNKGISGNTVRDLKARWEEDVIAQKPDWVSIMIGINDVWRQYDLPFMKEKHVYLDEYEATLRSLVLETKPLVKGIILMTPFYIEGNEQDPMRRTMDQYGRVVKQIAEETNSLFVDTQAAFNEVLKTLFPAALAWDRVHPSVAGHMILARAFLREIGFEWVRSR
B7: Axe2 (Geobacillus stearothermophilus; R205A/W215A/Y184F) (protein)
chain: MKIGSGEKLLFIGDSITDCGRARPEGEGSFGALGTGYVAYVVGLLQAVYPELGIRVVNKGISGNTVRDLKARWEEDVIAQKPDWVSIMIGINDVWRQYDLPFMKEKHVYLDEYEATLRSLVLETKPLVKGIILMTPFYIEGNEQDPMRRTMDQYGRVVKQIAEETNSLFVDTQAAFNEVLKTLFPAALAWDRVHPSVAGHMILAAAFLREIGFEAVRSR
B8: Axe2 (Geobacillus stearothermophilus; R55A) (protein)
chain: MKIGSGEKLLFIGDSITDCGRARPEGEGSFGALGTGYVAYVVGLLQAVYPELGIAVVNKGISGNTVRDLKARWEEDVIAQKPDWVSIMIGINDVWRQYDLPFMKEKHVYLDEYEATLRSLVLETKPLVKGIILMTPFYIEGNEQDPMRRTMDQYGRVVKQIAEETNSLFVDTQAAFNEVLKTLYPAALAWDRVHPSVAGHMILARAFLREIGFEWVRSR

Substrate: CC(=O)Oc1ccc2ccccc2c1
Test: esterase activity assay
Type: biochemical, Geobacillus stearothermophilus
Settings: 2-naphthyl acetate 1-20 mM in isopropanol, citrate phosphate buffer pH 7

Q: How did the Km turn out when B1 was run?
A: 300 µM

Q: What about the kcat of the same protein?
A: 720 s⁻¹

Q: What does the source list for B2?
A: Km: 3000 µM; kcat: 44 s⁻¹

Q: B3 was tested. Which Km did it give?
A: 1300 µM

Q: And the kcat?
A: 8.0x10^0 sec-1

Q: What does the source list for B4?
A: Km: 700 µM; kcat: 290 s⁻¹

Q: Which Km does the source give for B5 here?
A: 500 µM

Q: And the kcat?
A: 1000 s⁻¹

Q: Which results are given for B6?
A: Km: 4600 µM; kcat: 36 s⁻¹

Q: For B7, which Km is on record?
A: 6700 µM

Q: And the kcat?
A: 42 s⁻¹

Q: Which results are given for B8?
A: Km: 600 µM; kcat: 1000 s⁻¹
